Publication PMC1887683

Molecular target: STAT1 (activated; HepG2 nuclear extract, IL-6) (UniProt P42224)
Assay: competition EMSA
Conditions: scale: fold competition efficiency vs c-myc E2F

STAT1 (activated; HepG2 nuclear extract, IL-6), sequence (P42224 whole entry): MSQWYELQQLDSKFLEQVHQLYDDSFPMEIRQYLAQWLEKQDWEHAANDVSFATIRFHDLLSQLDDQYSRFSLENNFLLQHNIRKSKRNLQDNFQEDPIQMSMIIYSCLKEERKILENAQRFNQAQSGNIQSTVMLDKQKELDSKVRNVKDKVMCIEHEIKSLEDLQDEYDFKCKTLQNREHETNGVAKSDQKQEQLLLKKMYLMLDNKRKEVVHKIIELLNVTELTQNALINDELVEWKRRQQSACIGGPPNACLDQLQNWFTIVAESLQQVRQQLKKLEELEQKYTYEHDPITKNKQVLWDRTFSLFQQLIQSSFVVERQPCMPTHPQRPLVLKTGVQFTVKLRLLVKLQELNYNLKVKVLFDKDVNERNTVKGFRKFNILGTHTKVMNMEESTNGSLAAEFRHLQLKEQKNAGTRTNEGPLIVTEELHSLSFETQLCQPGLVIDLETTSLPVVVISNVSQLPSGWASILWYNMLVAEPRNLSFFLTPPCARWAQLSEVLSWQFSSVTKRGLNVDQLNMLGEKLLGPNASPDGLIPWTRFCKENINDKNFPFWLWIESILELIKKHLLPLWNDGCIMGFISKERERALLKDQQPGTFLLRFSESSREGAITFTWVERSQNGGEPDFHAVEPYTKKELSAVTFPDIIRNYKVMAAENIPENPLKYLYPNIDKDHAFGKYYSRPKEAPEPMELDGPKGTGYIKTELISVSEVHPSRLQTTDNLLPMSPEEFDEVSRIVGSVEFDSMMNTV

## APRE (alpha2-macroglobulin)
  binding signal: 5
